Results as given in publication PMC9224406.

Tests used:
[1] = biological target: BDNF pro-peptide V66M pro-peptide (Homo sapiens) (UniProt P23560); assay: SPR; settings: cited from earlier work
[2] = biological target: BDNF pro-peptide pro-peptide (Homo sapiens) (UniProt P23560); assay: SPR; settings: cited from earlier work
[3] = biological target: human proBDNF V66M variant (human); assay: SAXS; hproBDNF V66M in solution at five concentrations (0.14–1.45 mg/mL), 50 mM Sodium Phosphate pH 7.0, 283 K; molecular mass from I(0) against BSA and from the Porod volume, compared with the calculated monomer mass

Sequence of BDNF (P23560 129-247): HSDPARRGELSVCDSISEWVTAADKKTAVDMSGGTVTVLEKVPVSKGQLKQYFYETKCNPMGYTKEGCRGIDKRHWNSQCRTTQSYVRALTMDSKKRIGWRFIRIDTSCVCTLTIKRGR
Sequence of BDNF pro-peptide V66M pro-peptide (Homo sapiens) (P23560 19-128 V66M): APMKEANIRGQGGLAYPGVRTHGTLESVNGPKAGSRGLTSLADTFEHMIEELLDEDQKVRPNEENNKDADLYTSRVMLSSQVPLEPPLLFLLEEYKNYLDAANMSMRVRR
Sequence of BDNF pro-peptide pro-peptide (Homo sapiens) (P23560 19-128): as the sequence (P23560 19-128 V66M) above, with M48V counted along it

Row | Substance | Kd [1] | Kd [2] | stoichiometry N [3]
1 | BDNF (from UniProt P23560) | 0.12 nM | 0.42 nM | –
2 | human proBDNF V66M variant (natural protein) | – | – | 2
